Assays:
Assay in all cases: IEDB peptide-MHC binding, purified MHC/direct/fluorescence; filed as Kd, often an IC50 or EC50 that approximates it; ≥ and ≤ were set here for values at or beyond the usual limits of such assays
[1] = target: HLA-B*39:01; details: source organism: Yellow fever virus
[2] = target: HLA-B*51:01
[3] = target: HLA-B*40:01; details: source organism: Yellow fever virus
[4] = target: HLA-A*01:01; details: source organism: dengue virus type 2
[5] = target: HLA-A*31:01
[6] = target: HLA-A*03:01; details: source organism: Yellow fever virus
[7] = target: HLA-B*07:02; details: source organism: Yellow fever virus
[8] = target: HLA-B*15:01; details: source organism: dengue virus type 4
[9] = source organism: Yellow fever virus

Sequence: CRTAFKPVL
- Kd [1]: 2060 nM

Sequence: ERWFVRNPF
- Kd [1]: ≥ 20000 nM

Sequence: FHERGYVKL
- Kd [1]: 35 nM

Sequence: FHKRDMRLL
- Kd [1]: ≥ 20000 nM

Sequence: FTMRLLSPV
- Kd ([2]; source organism: dengue virus type 1): ≥ 20000 nM

Sequence: GEAMDTISV
- Kd [1]: ≥ 20000 nM
- Kd [3]: ≤ 1 nM

Sequence: IQYVIRAQL
- Kd [1]: 682 nM

Sequence: KTWAYHGSY
- Kd [4]: ≥ 20 µM
- Kd ([5]; source organism: dengue virus type 2): ≥ 20000 nM

Sequence: LTLKGTSYK
- Kd [6]: 104 nM
- Kd [5, 9]: 518 nM

Sequence: MPRSIGGPV
- Kd [2, 9]: 858 nM
- Kd [7]: 5 nM

Sequence: MVIFFMSPK
- Kd [6]: 610 nM
- Kd [5, 9]: 1400 nM

Sequence: PHAATIRVL
- Kd [1]: 960 nM

Sequence: RADEINAIL
- Kd [1]: 156 nM

Sequence: RMGERQLQK
- Kd [6]: 340 nM
- Kd [5, 9]: 187 nM

Sequence: RTWAYHGSY
- Kd [8]: 12 nM
- Kd ([5]; source organism: dengue virus type 4): 37 nM

Sequence: SSARYDVAL
- Kd [1]: 377 nM

Sequence: TKDTNDNNL
- Kd [1]: 136 nM

Sequence: VRGGMVAPL
- Kd [1]: 5370 nM

Source: the Immune Epitope Database (IEDB)
